The target of data set [1] is αE2 (isolated E2 DNA-recognition helix peptide) (Human papillomavirus type 16?) (UniProt P06790). Briefly: EMSA. (In general: In EMSA bound probe runs differently from free probe, usually more slowly.)
Data set [2] shares this target. Put plainly: DNA melting.

pKd: −log10 of the molar value.

Sequence of UniProt P06790 (P06790 whole entry): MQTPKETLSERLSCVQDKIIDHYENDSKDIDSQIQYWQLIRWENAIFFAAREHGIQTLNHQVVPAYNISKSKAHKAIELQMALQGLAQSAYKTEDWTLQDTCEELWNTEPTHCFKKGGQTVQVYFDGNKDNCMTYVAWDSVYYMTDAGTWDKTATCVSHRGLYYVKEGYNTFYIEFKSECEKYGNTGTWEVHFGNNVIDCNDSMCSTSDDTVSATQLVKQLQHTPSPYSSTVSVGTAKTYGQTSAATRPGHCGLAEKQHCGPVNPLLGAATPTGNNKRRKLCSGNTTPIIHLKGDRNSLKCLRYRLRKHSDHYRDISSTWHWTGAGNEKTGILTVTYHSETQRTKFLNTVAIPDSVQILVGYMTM

In general, pKd refers to −log10 of the Kd, conventionally taken in molar units. Read a high pKd as a low Kd. Consider “ACATGGACCTGTCAAGTA (double strand) [Iset non E2-non Dst]”, for which the pKd in data set [1] was 4.30.

For “GTAGCACAAATCGGTTGA (double strand) [hemisite E2-Dst]”, the binding signal in data set [2] was 2 C (ΔTm). The sequence also gave a pKd in data set [1] of 5.20.

The values above are taken from article PMC3143144.
